According to patent publication US20030114379A1 (Human Genome Sciences, published 2003):

Tests used:
[1] = target: cell surface receptor for MIP-1α (on human monocytes) (human); assay: cell-based or functional assay
[2] = target: the molecule itself; assay: sedimentation equilibrium analytical ultracentrifugation for self-association, at several pH values and ionic strengths (Table 10, State 'M')
Experimental: Sedimentation Equilibrium. Analytical ultracentrifugation experiments were performed on a Beckman model XL-A ultracentrifuge at 20° C. at rotor speeds 23,000, 28,000 and 40,000 rpm. Experiments were carried out at two different starting concentrations in different buffers and ionic strength to study their effect on dimerization (Table 10). Absorbance was measured at 280 nm and the data was collected as an average of five successive radial scans using a 0.003 cm step size. The data was fitted to the following equation: […]
Sedimentation equilibrium. Chemokine ability to associate is dependent on solution conditions such as pH and ionic strength. The association properties of the MPIF-1 and the full length MPIF-1 were studied using ultracentrifugation methods at different pH and ionic strengths. […] The monomeric state of MPIF-1 is consistent with the NMR structure and also from the calculation of the correlation time from ¹⁵N dynamics.

intracellular calcium mobilization in human monocytes, activity relative to wild type MPIF-1 [1] | Binder | binding result [2]
~2 fold | MPIF-1 Mutant-1 (the 'mature' MPIF-1 for E. coli expression, wild type with an N-terminal methionine) (ligand) MRVTKDAETEFMMSKLPLENPVLLDRFHATSADCCISYTPRSIPCSLLESYFETNSECSKPGVIFLTKKGRRFCANPSDKQVQVCMRMLKLDTRIKTRKN | –
– | MPIF-1Δ23 (truncated human MPIF-1 lacking the 23 N-terminal amino acids of the mature protein, with an N-terminal Met; 77 amino acids, 8.85 kDa) (ligand, Delta 23) MDRFHATSADCCISYTPRSIPCSLLESYFETNSECSKPGVIFLTKKGRRFCANPSDKQVQVCMRMLKLDTRIKTRKN | no binding
